In US20240425606A1, “ANTI-IL-11RA ANTIBODIES” (Lassen Therapeutics 1, Inc., priority 2021, published 2024):
Numbering of substitutions follows the chain as printed. Names and notes keep the numbering of the source.

T1: hIL-11Rα (Homo sapiens, UniProt Q14626)
T1 sequence (Q14626 23-422): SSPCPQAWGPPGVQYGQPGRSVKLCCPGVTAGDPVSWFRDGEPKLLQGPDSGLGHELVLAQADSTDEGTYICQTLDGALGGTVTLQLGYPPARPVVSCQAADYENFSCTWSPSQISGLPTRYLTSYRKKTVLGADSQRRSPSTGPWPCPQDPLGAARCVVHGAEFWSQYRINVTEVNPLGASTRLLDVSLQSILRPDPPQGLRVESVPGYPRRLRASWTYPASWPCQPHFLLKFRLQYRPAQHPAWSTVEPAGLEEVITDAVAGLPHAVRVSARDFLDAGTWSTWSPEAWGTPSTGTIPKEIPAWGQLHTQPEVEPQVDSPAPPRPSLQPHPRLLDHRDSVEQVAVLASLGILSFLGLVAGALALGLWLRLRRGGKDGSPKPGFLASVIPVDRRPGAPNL

B1: mAb6: anti-IL-11Rα antibody; VH SEQ ID NO: 203, VL SEQ ID NO: 204; human IgG4 (S228P), kappa light chain (antibody, V domains shown)
VH: EVQLLESGGGLVQPGGSLRLSCAASGFTFSWYSMTWVRQAPGKGLEWVSSIVPYGDLTQYADSVKGRFTISRDNSKNTLYLQMNSLRAEDTAVYYCAKGPGWGSFDLWGRGTLVTVSS
VL: DIQMTQSPSSLSASVGDRVTITCQASQDINNYLNWYQQKPGKAPKLLIYDASNLQTGVPSRFSGSGSGTDFTFTISSLQPEDIATYYCQQHEFQSPTFGPGTKVDIK
modifications: human IgG4 S228P and kappa constant regions; mAb6 VH Chain; mAb6 VL Chain
notes: anti-IL-11Rα antibody; human IgG4 (S228P), kappa light chain
B2: mAb12: anti-IL-11Rα antibody; VH SEQ ID NO: 215, VL SEQ ID NO: 216; human IgG4 (S228P), kappa light chain (antibody, V domains shown)
VH: B1 VH with G103Y
VL: B1 VL with F93S
modifications: human IgG4 S228P and kappa constant regions; mAb12 VH Chain; mAb12 VL Chain
notes: as for B1
B3: mAb8: anti-IL-11Rα antibody; VH SEQ ID NO: 207, VL SEQ ID NO: 208; human IgG4 (S228P), kappa light chain (antibody, V domains shown)
VH: B1 VH with W31S, S33A, T35S
VL: B1 VL with F93S
modifications: human IgG4 and kappa constant regions; mAb8 VH Chain; mAb8 VL Chain
notes: as for B1
B4: mAb14: anti-IL-11Rα antibody; VH SEQ ID NO: 219, VL SEQ ID NO: 220; human IgG4 (S228P), kappa light chain (antibody, V domains shown)
VH: B1 VH with D62E
VL: B1 VL with F93S
modifications: human IgG4 S228P and kappa constant regions; mAb14 VH Chain; mAb14 VL Chain
notes: as for B1
B5: mAb13: anti-IL-11Rα antibody; VH SEQ ID NO: 217, VL SEQ ID NO: 218; human IgG4 (S228P), kappa light chain (antibody, V domains shown)
VH: B1 VH with G99P, P100E, G101D, S104R
VL: B1 VL with F93S
modifications: human IgG4 S228P and kappa constant regions; mAb13 VH Chain; mAb13 VL Chain
notes: as for B1
B6: mAb7: anti-IL-11Rα antibody; VH SEQ ID NO: 205, VL SEQ ID NO: 206; human IgG4 (S228P), kappa light chain (antibody, V domains shown)
VH: B1 VH with W31N, S33A, T35S
VL: B1 VL with F93S
modifications: human IgG4 S228P and kappa constant regions; mAb7 VH Chain; mAb7 VL Chain
notes: as for B1
B7: mAb9: anti-IL-11Rα antibody; VH SEQ ID NO: 209, VL SEQ ID NO: 210; human IgG4 (S228P), kappa light chain (antibody, V domains shown)
VH: B1 VH with S50G
VL: B1 VL with F93S
modifications: human IgG4 and kappa constant regions; mAb9 VH Chain; mAb9 VL Chain
notes: as for B1
B8: mAb15: anti-IL-11Rα antibody; VH SEQ ID NO: 221, VL SEQ ID NO: 222; human IgG4 (S228P), kappa light chain (antibody, V domains shown)
VH: B1 VH
VL: B1 VL with F93T, S95T
modifications: human IgG4 S228P and kappa constant regions; mAb15 VH Chain; mAb15 VL Chain
notes: as for B1
B9: mAb11: anti-IL-11Rα antibody; VH SEQ ID NO: 213, VL SEQ ID NO: 214; human IgG4 (S228P), kappa light chain (antibody, V domains shown)
VH: B1 VH with P53D
VL: B1 VL with F93S
modifications: human IgG4 S228P and kappa constant regions; mAb11 VH Chain; mAb11 VL Chain
notes: as for B1
B10: mAb10: anti-IL-11Rα antibody; VH SEQ ID NO: 211, VL SEQ ID NO: 212; human IgG4 (S228P), kappa light chain (antibody, V domains shown)
VH: B1 VH with P53A
VL: B1 VL with F93S
modifications: human IgG4 S228P and kappa constant regions; mAb10 VH Chain; mAb10 VL Chain
notes: as for B1

What follows are molecules tested against T1, hIL-11Rα (assay: Kinetic binding analysis by biolayer interferometry (protein G biosensors, Octet RED96e)). Details: beyond the ability of the instrument to determine an accurate off-rate (kd).
Procedure: Association was carried out in the presence of a 2-fold dilution series of hIL-11Rα and was allowed to proceed for 120 seconds; dissociation was measured for 300 to 1200 seconds.

binding affinity (in words)	Molecule
very high binding affinity	B1
very high binding affinity	B2
very high binding affinity	B3
very high binding affinity	B4
very high binding affinity	B5
very high binding affinity	B6
very high binding affinity	B7
very high binding affinity	B8

Same assay, conditions: protein G biosensors; association 120 seconds

ka [M⁻¹ s⁻¹]	Molecule
800000	B1
58100	B2
65100	B3
32900	B9
33700	B4
840000	B10
66700	B5
63500	B6
62200	B7
84000	B8

Same assay, conditions: protein G biosensors; dissociation 300 to 1200 seconds

kd [s⁻¹]	Molecule
<1e-07	B1
<1e-07	B2
<1e-07	B3
0.0181	B9
<1e-07	B4
0.000416	B10
<1e-07	B5
<1e-07	B6
<1e-07	B7
<1e-07	B8

The molecules below were run on IL-11 signaling in STAT3 Reporter (Luciferase)—HEK293 cell line (assay: Cell-based STAT3 reporter (luciferase) assay for inhibiting IL-11 signaling). Details: compared with TS7 and 8E2.
Design: species or system human
Procedure: Further testing of the lead mAbs was carried out using a cell-based reporter assay. IL-11 is reported to signal through the STAT3 and ERK pathways. Therefore, a STAT3 reporter cell line in which firefly luciferase gene expression is driven by STAT3 response elements located upstream of a minimal TATA promoter was selected to analyze mAb functional activity. In these cells, IL-11 can activate the endogenous STAT3 allowing it to bind to the STAT3 response elements, inducing transcription of the luciferase reporter gene and resulting in readily detectable luciferase expression. Antibodies to IL-11R which block IL-11 signaling should inhibit expression of IL-11 driven luciferase in these cells.
The STAT3 Reporter (Luciferase)—HEK293 cell line (BPS Bioscience, catalog #79800-P) was grown, passaged, and assayed as per manufacturer's protocols. Cells were added at 25,000 cells per well in a 96-well microtiter dish and incubated at 37° C. for 30-45 min. in 5% CO2 humidified air. Anti-IL-11R mAbs were added as a 3-fold dilution series in duplicate columns or rows, and plates were returned to the incubator for an additional 1 h at 37° C. after which 40 ng/mL IL-11 was added to each well to initiate the signal transduction cascade and luciferase production. Plates were incubated for 18-24 hours at 37° C. and luciferase was detected using a One-Step Luciferase Assay System (BPS Bioscience, cat. no. 60690-1) as per manufacturer's instructions.

Molecule	relative potency at inhibiting IL-11 signaling (in words)
B1	variable
B2	comparable in potency to TS7
B3	less potent than TS7
B9	less potent than TS7
B4	comparable in potency to TS7
B10	less potent than TS7
B5	more potent at inhibiting IL-11 signaling than either of TS7 or 8E2
B6	less potent than TS7
B7	more potent at inhibiting IL-11 signaling than either of TS7 or 8E2
B8	comparable in potency to TS7
